Here are results for four molecules from PMC6355029, “Structure of the DP1–DP2 PolD complex bound with DNA and its implications for the evolutionary history of DNA and RNA polymerases”.

Broadly, the stoichiometry N is the number of molecules, sites or subunits per partner or assembly. Broadly, the Kd is the equilibrium constant for the complex coming apart.

Data set [1] addresses Pyrococcus abyssi PolD DP1 subunit, exonuclease-deficient variant H451A, full length (Pyrococcus abyssi) (UniProt Q9V2F3). Kind of data set: AUC; sedimentation velocity of the copurified PolD complex at 0.2, 0.5 and 1 mg/ml, 42,000 rpm, 20°C; continuous c(s) distribution (Sedfit); sediments at 8 S, frictional ratio 1.4.
Data set [2] deals with T1, PolD DP1 H451A (exonuclease-deficient small subunit);PolD DP2 (large catalytic subunit) (Pyrococcus abyssi;Pyrococcus abyssi, UniProt Q9V2F3;Q9V2F4;Q9V2F4 1-619;1-954;1140-1455, H451A|). As to the kind of experiment: fluorescence anisotropy; Fluorescence anisotropy: 20 mM sodium succinate pH 6, 100 mM NaCl, 25 C, 5 nM HEX-DNA, PolD up to 600 nM, DP2(1-1061) up to 6 uM. The following applies: protein: recombinant;recombinant; tags: N-terminal 14xHis, TEV-cleaved;; copies: 1;1;1; 3'-HEX in assay text; blunt, 25 bp.
T1 sequence (Q9V2F3 whole entry H451A, chain 1 of 3): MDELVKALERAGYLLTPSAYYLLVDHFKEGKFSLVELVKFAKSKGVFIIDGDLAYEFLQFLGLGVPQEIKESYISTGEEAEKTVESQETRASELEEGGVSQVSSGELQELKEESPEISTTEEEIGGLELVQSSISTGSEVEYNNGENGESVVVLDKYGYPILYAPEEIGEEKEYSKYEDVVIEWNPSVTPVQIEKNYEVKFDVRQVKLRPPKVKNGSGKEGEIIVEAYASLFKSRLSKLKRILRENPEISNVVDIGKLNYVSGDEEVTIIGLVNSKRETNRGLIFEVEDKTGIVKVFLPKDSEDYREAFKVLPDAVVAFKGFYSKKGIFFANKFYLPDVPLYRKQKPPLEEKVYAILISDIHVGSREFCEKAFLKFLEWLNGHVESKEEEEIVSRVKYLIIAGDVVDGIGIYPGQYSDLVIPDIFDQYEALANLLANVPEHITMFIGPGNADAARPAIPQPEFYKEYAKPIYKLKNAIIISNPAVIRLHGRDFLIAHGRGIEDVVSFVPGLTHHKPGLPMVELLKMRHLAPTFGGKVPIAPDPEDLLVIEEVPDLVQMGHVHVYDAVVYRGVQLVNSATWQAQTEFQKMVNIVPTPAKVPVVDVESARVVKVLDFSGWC
T1 sequence (Q9V2F4 1-954, chain 2 of 3): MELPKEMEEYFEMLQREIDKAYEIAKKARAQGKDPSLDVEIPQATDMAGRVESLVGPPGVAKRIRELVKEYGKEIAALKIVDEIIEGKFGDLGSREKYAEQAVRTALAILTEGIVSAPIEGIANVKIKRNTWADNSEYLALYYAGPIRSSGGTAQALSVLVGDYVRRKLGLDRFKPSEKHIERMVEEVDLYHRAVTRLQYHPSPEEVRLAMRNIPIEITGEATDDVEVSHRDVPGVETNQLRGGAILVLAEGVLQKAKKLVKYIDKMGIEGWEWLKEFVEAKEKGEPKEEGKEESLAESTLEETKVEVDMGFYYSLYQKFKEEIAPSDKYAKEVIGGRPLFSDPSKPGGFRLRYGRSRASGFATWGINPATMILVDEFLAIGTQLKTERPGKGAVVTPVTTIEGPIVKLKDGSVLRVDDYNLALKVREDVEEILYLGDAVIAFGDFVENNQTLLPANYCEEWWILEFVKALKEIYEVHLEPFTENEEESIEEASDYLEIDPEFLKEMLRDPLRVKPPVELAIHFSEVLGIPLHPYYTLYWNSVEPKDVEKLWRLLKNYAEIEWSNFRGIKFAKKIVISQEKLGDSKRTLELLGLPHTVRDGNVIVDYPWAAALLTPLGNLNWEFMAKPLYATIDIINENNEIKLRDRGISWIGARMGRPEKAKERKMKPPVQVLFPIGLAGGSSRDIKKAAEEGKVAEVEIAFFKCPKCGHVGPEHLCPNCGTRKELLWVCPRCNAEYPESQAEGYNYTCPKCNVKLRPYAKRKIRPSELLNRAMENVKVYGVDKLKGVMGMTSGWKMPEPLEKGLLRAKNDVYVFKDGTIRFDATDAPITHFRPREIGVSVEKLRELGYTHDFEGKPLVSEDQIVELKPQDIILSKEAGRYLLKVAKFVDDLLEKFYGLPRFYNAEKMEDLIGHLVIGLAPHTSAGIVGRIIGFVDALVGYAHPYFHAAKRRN
T1 sequence (Q9V2F4 1140-1455, chain 3 of 3): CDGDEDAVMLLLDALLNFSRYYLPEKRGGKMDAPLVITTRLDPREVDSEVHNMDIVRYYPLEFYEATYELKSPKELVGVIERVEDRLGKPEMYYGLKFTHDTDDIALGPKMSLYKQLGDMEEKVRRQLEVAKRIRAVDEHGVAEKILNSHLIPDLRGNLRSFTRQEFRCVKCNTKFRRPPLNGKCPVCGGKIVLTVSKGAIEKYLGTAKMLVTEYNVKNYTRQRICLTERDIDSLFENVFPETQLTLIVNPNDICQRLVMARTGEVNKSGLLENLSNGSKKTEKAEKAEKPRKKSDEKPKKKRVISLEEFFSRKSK

Data set [3] addresses T1, PolD DP1 H451A (exonuclease-deficient …). Described as above. Conditions: protein: recombinant;recombinant; tags: N-terminal 14xHis, TEV-cleaved;; copies: 1;1;1; 3'-HEX in assay text; 18 bp duplex, 5' overhang 7 nt on template.
The target is the same in data set [4]. As to the kind of experiment: cryo-EM structure; Zn2+ and Fe3+ in protein; no nucleotide; Fluorescence anisotropy: 20 mM sodium succinate pH 6, 100 mM NaCl, 25 C, 5 nM HEX-DNA, PolD up to 600 nM, DP2(1-1061) up to 6 uM. The following applies: protein: recombinant;recombinant; tags: N-terminal 14xHis, TEV-cleaved;; copies: 1;1;1; 15 bp duplex, 5' overhang 5 nt on template.

Pyrococcus abyssi PolD DP1 subunit, exonuclease-deficient variant H451A, full length (Pyrococcus abyssi), sequence (Q9V2F3 whole entry H451A): as the sequence (Q9V2F3 whole entry H451A, chain 1 of 3) above

As for “Pyrococcus abyssi PolD DP2 subunit, full length (from UniProt Q9V2F4 1-1455) (enzyme)”, in data set [1], the stoichiometry N is 1.

B1: HEX dsDNA (dsDNA)
DNA 1: CGCCGGGCCGAGCCGTGCACGACCT
DNA 2: AGGTCGTGCACGGCTCGGCCCGGCG
Take B1: in data set [2], the binding signal is 6.5 fold weaker Kd than primer-template.

B2: HEX primer/template (dsDNA)
DNA 1: CGCCGGGCCGAGCCGTGC
DNA 2: AGGTCGTGCACGGCTCGGCCCGGCG
B2: in data set [3], the equilibrium dissociation constant (Kd) came to 15 nM.

B3: cryo-EM primer/template (dsDNA)
DNA 1: GAGACGGGCCGCGTC
DNA 2: ACTTTGACGCGGCCCGTCTC
As to B3, the binding result in data set [4] is listed as “binds”.
